Source: PMC6755732, “Structural, Biochemical, and In Vivo Characterization of MtrR-Mediated Resistance to Innate Antimicrobials by the Human Pathogen Neisseria gonorrhoeae”

Legend:
[1] = biological target: T1, MtrR (Neisseria gonorrhoeae, UniProt P39897 1-210); experiment: fluorescence polarization; no CAPS; FP: 20 mM Tris-HCl pH 8.0, 100 mM NaCl, 2.5% glycerol, 1 nM DNA, temperature not stated; EMSA: 20 mM Tris pH 8.0, 200 mM NaCl, 10% glycerol, 1 mM TCEP, 1 ug poly(dI-dC), room temperature, 2% agarose TAE; conditions: protein: recombinant; tags: His6 removed by thrombin; chain copies: 2
[2] = biological target: T1, MtrR; experiment: fluorescence polarization; no bile salt; FP: 20 mM Tris-HCl pH 8.0, 100 mM NaCl, 2.5% glycerol, 1 nM DNA, temperature not stated; EMSA: 20 mM Tris pH 8.0, 200 mM NaCl, 10% glycerol, 1 mM TCEP, 1 ug poly(dI-dC), room temperature, 2% agarose TAE; conditions: protein: recombinant; tags: His6 removed by thrombin; chain copies: 2
[3] = biological target: MtrR(R176E) (Neisseria gonorrhoeae, UniProt P39897 1-210, R176E); experiment: fluorescence polarization; no bile salt; nM Kd within 5-fold of WT (137, 184 or 187 nM, assignment unclear); FP: 20 mM Tris-HCl pH 8.0, 100 mM NaCl, 2.5% glycerol, 1 nM DNA, temperature not stated; EMSA: 20 mM Tris pH 8.0, 200 mM NaCl, 10% glycerol, 1 mM TCEP, 1 ug poly(dI-dC), room temperature, 2% agarose TAE; conditions: protein: recombinant; tags: N-terminal His6 removed by TEV; chain copies: 2
[4] = biological target: MtrR(W136L) (Neisseria gonorrhoeae, UniProt P39897 1-210, W136L); experiment: as above; conditions: protein: recombinant; tags: N-terminal His6 removed by TEV; chain copies: 2
[5] = biological target: MtrR(R176A) (Neisseria gonorrhoeae, UniProt P39897 1-210, R176A); experiment: as above; conditions: protein: recombinant; tags: N-terminal His6 removed by TEV; chain copies: 2
[6] = biological target: T1, MtrR; experiment: fluorescence polarization; 1 mM glycocholate; FP: 20 mM Tris-HCl pH 8.0, 100 mM NaCl, 2.5% glycerol, 1 nM DNA, temperature not stated; EMSA: 20 mM Tris pH 8.0, 200 mM NaCl, 10% glycerol, 1 mM TCEP, 1 ug poly(dI-dC), room temperature, 2% agarose TAE; conditions: protein: recombinant; tags: His6 removed by thrombin; chain copies: 2
[7] = biological target: T1, MtrR; experiment: fluorescence polarization; 1 mM taurocholate; FP: 20 mM Tris-HCl pH 8.0, 100 mM NaCl, 2.5% glycerol, 1 nM DNA, temperature not stated; EMSA: 20 mM Tris pH 8.0, 200 mM NaCl, 10% glycerol, 1 mM TCEP, 1 ug poly(dI-dC), room temperature, 2% agarose TAE; conditions: protein: recombinant; tags: His6 removed by thrombin; chain copies: 2

B1: mtrC (mtrCDE) operator 27-mer, fluorescein (dsDNA)
DNA 1: TTTTTATCCGTGCAATCGTGTATGTAT
DNA 2: ATACATACACGATTGCACGGATAAAAA
With B1 the Kd [1] was roughly 3.6 nM, the Kd [2] was 18 ± 3 nM and the binding result [3] was “binds”. The binding result [4] was “binds”, the binding result [5] was “binds” and the Kd [6] was 21 ± 0.8 nM. For the same binder, the Kd [7] was 20 ± 6 nM.
